Measured values published in the supplement of paper PMC11865577.

Key:
Experiment in all cases: pull-down binding Z-score (relative to library population); higher = stronger binding
TO-N3 (biotin conjugate) = settings: RNA library: Library-2
Method in brief: (§1)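 Streptavidin beads with 100 pmol of biotin-conjugated small molecule were incubated for 60 min at 25 °C with 1 μg of heat-folded Cy5- or Cy3-end-labelled RNA library in phosphate/NaCl/KCl buffer. Bound RNA was eluted in hot SDS after three washes and hybridised to a DNA barcode microarray at 55.5 °C for 20 h. Each binding score is a library-referenced Z-score, computed after beads-only subtraction and a trimmed mean of barcoded replicate probes.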

[1] = system: TO-N3-2 (biotin conjugate); settings: RNA library: Library-2
Method in brief: as §1

[2] = system: TO-3-N3-2 (biotin conjugate); settings: RNA library: Library-2
Method in brief: as §1

[3] = system: TO-3-N3 (biotin conjugate); settings: RNA library: Library-2
Method in brief: as §1

[4] = system: G-clamp-N3 (biotin conjugate); settings: RNA library: Library-1 (pre-miRNA loops + repeats)
Method in brief: as §1

Sequence | pull-down binding Z-score (TO-N3 (biotin conjugate)) | pull-down binding Z-score [1] | pull-down binding Z-score [2] | pull-down binding Z-score [3] | pull-down binding Z-score [4]
GUGGAGUCGGGUCAGACUUCAA [hsa-mir-378c] | -0.0868 | 0.384 | -0.477 | -0.461 | -1.13
GUGGCCUUGGACAAGCCUCUUGGUUAC [hsa-mir-4672] | -0.141 | 0.885 | -0.502 | -0.457 | -0.419
GUGGCUAAUCAGCUGAUGGUGCCAC [hsa-mir-4715] | -0.26 | -0.545 | -0.511 | -0.0716 | -0.109
GUGGCUUCAACCAAGUUCAAAGUCAC [hsa-mir-3186] | -0.441 | -0.383 | -0.378 | -0.304 | -1.08
GUGGCUUGUGGCUGAGUGUCACGCUGC [hsa-mir-6068] | -0.254 | 0.225 | -0.233 | -0.567 | 0.217
GUGGGUCAAGUUUAGAGAUGCACCAAC [hsa-mir-490] | 1.43 | 1.5 | 0.519 | 1.32 | 0.572
GUGGGUUGUGAGGACUGAGGCCAGACCCAC [hsa-mir-181d] | -0.139 | 0.803 | -0.244 | -0.504 | 1.5
GUGGUGGGCACUGCUGGGGUGGGCACAGCAGCCAUGCAGAGCGGGCAUUUGACCCCGUGCCACCCUUUUCCCCAG [hsa-mir-1227] | 3.14 | 2.64 | 1.89 | 2.64 | 0.221
GUGGUUUCAGGGCAGUGAUGUUGCCCCUCGGAAGAUAACUAU [hsa-let-7b] | -0.128 | 0.235 | -0.113 | -0.324 | 0.231
GUGUACAGGGAGGAGACUGUACGUGAGAGAUAGUCAGAUCCGCAUGUUAGAGCAGAGUCUCCUUCGUGUACAG [hsa-mir-4441] | -0.184 | 0.631 | -0.183 | -0.779 | 0.459
GUGUACCUCAUGUGUGUACAC [hsa-mir-5692a-2_5692a-1] | -0.563 | 0.335 | -0.344 | -0.584 | -0.853
GUGUAGAGGCGGAGCACAG [hsa-mir-1471] | 0.847 | 1.46 | 0.381 | 0.151 | 0.507
GUGUAGGGGUGGCUACAC [hsa-mir-4717] | 0.346 | 0.235 | 0.281 | 0.385 | 0.957
GUGUAUGGGCUGAGCCUUGC [hsa-mir-6805] | 0.44 | 0.868 | 0.0312 | -0.021 | 0.279
GUGUCCUGAAAUUCACAGGACUG [hsa-mir-4700] | 0.923 | 0.643 | 0.237 | 0.856 | 1.38
GUGUCCUUUCUUCUGAGAGCUGGACAC [hsa-mir-6500] | -0.527 | -0.336 | -0.39 | -0.375 | 0.00177
GUGUCGCCCCACGAGGGGGACUGU [hsa-mir-4322] | 0.327 | 0.483 | -0.362 | -0.00462 | -0.152
GUGUCUGGAGACGCCAGGCAGC [hsa-mir-4323] | 0.127 | 1.13 | -0.352 | -0.154 | -0.529
GUGUCUGGCCCCAGCAGCCCAGACU [hsa-mir-6751] | 0.766 | 1.39 | -0.171 | 0.258 | -0.568

Sequence | pull-down binding Z-score (TO-N3 (biotin conjugate)) | pull-down binding Z-score [1] | pull-down binding Z-score [2] | pull-down binding Z-score [3] | pull-down binding Z-score [4]
GUGUGGAGAGAGCACUGAGCCUGCCCACC [hsa-mir-6849] | 0.55 | 1.45 | -0.152 | -0.134 | -0.498
GUGUGUGGCGUGGGUGCUGCGGGGCCGUCAGGGUGCCUGCGGGACGCUCAC [hsa-mir-6765] | 1.13 | 1.73 | 0.334 | 0.665 | 1.58
GUGUGUUACCUAGAAAUAGCACU [hsa-mir-378a] | -0.282 | -0.118 | -0.165 | -0.283 | -1.11
GUGUUCACACAUAAUGUGUACACCAUGUGUGUACAC [hsa-mir-5692b] | 0.022 | -0.606 | -0.272 | 0.192 | -0.31
GUGUUGGGUAUAAGUAACA [hsa-mir-1270] | 0.257 | 0.457 | 0.157 | -0.205 | -0.877
GUGUUUAUUUUUUACUAAAUAG [hsa-mir-4766] | -0.451 | -0.723 | 0.102 | -0.515 | -0.918
GUGUUUGUGACAUAAUUUGU [hsa-mir-325] | 0.0205 | -0.231 | 0.252 | 0.174 | -1.02
GUGUUUUCUCCUUUAGAGAGAGCUG [hsa-mir-4299] | -0.257 | 0.309 | -0.23 | -0.542 | 0.765
GUUACUAAUCUAACUAAUUGUAAC [hsa-mir-582] | 0.00217 | -0.722 | 0.0952 | 0.0863 | 1.11
GUUACUGUGGGAACUGGAGGUAAC [hsa-mir-132] | 1.1 | 0.708 | 0.489 | 0.839 | 2.34
GUUAGACCUGGCCCUCUGUCUAAU [hsa-mir-429] | 0.564 | 0.3 | -0.136 | 0.355 | -0.787
GUUAGUUGUGGACACAUACUAAC [hsa-mir-3912] | -1.19 | -1.25 | -0.735 | -0.764 | -0.0574
GUUCAGAGUCUGUUUUUGUCUAGC [hsa-mir-29c] | -0.313 | -0.0332 | 0.0089 | -0.508 | -0.124
GUUCCUGUGAUUUUUC [hsa-mir-198] | -0.29 | -0.289 | -0.212 | -0.267 | -0.819
GUUCGCUUAAUUUAUGACGAAUC [hsa-mir-487a] | -0.395 | -0.483 | -0.215 | -0.221 | 0.269
GUUCGGGGGUUCCGACGGCGAC [hsa-mir-6790] | 2.67 | 1.76 | 0.957 | 2.61 | 3.09
GUUGAAAAAUAUCUAUGUAUUAGUAAAC [hsa-mir-649] | -0.151 | -0.74 | -0.281 | -0.0443 | -0.475
GUUGACUGUUGAAUCUCAUGGCAAC [hsa-mir-21] | 0.0029 | 0.204 | -0.186 | -0.114 | -0.474
GUUGCAUGUUGUCACGGCCUCAAUGCAAU [hsa-mir-32] | 0.0815 | 0.552 | -0.202 | -0.164 | -1.33

Sequence | pull-down binding Z-score (TO-N3 (biotin conjugate)) | pull-down binding Z-score [1] | pull-down binding Z-score [2] | pull-down binding Z-score [3] | pull-down binding Z-score [4]
GUUGCUUAGAUUACAUGUAAC [hsa-mir-890] | -0.579 | 0.419 | -0.214 | -0.632 | -0.226
GUUGGAUGGUCUAAUUGUGAAGCUCCUAAC [hsa-mir-141] | -0.138 | -0.0552 | -0.259 | -0.103 | -0.549
GUUGGCUCAAGAAAGGGAGAUAGAUGGUAGCCC [hsa-mir-6884] | 1.94 | 3.94 | 1.51 | 1.71 | 0.473
GUUGGGAUUGAGUUUUGAACUCGGC [hsa-mir-196a-2] | -0.0442 | -0.0161 | -0.0929 | 0.00707 | 0.29
GUUGGGCAUCCACAGUCUCCCACC [hsa-mir-1911] | 0.206 | 0.612 | -0.322 | -0.0617 | -1.43
GUUGGGGAACAGGUGGUUAGCACUUCAU [hsa-mir-5196] | 1.35 | 0.81 | 0.521 | 1.07 | 0.351
GUUGUUGUCUUACUGCGCUCAACAAC [hsa-mir-7-2] | -0.0893 | -0.241 | -0.285 | 0.0252 | 0.767
GUUGUUGUGAGCAAUAGUAAGGAAGCAAU [hsa-mir-34a] | 0.423 | 0.486 | 0.501 | 0.276 | 0.984
GUUGUUUUUAGAUAACUAAAUCGACAAC [hsa-mir-7-1] | 0.59 | 0.0256 | 0.0396 | 0.721 | 0.109
GUUUACGUGAUUCCUGGUUAAUC [hsa-mir-376b] | -0.0962 | -0.0759 | -0.0636 | -0.121 | 0.375
GUUUAUUUUGUAGC [hsa-mir-4317] | 0.221 | -0.593 | -0.0511 | 0.299 | -1.09
GUUUCUAAAAAAAUAAAAAGUUAAAAAAAUUUAUGUUAACGUGUAAUGUGUUUACUAAUUUUUUUUUUUUUUUUUGGAGAC [hsa-mir-3908] | -0.136 | -0.771 | 0.349 | -0.27 | -1.28
GUUUCUGUUGUCUGAAAGGAAAGAAAG [hsa-mir-520e] | -0.486 | 0.25 | -0.346 | -0.489 | -1.01
GUUUGAUAGUUUAGACACAAAC [hsa-mir-3591] | 0.263 | -0.389 | 0.11 | 0.44 | 0.0903
GUUUGCAAGGGGUGUUUCUGUCCAUGGUCAGGC [hsa-mir-4283-1_4283-2] | 0.778 | 0.725 | 0.154 | 0.578 | 1.19
GUUUGCCUGUUAAUGAAUUCAAAC [hsa-mir-3129] | 0.513 | 0.0357 | 0.248 | 0.445 | -0.522
GUUUGGCAGGACAGUUUCCAAGC [hsa-mir-6779] | -0.451 | 0.15 | -0.323 | -0.587 | -0.893
GUUUGGGUGCGGUUGGGAGUCUCUAAU [hsa-mir-200c] | 1.67 | 1.41 | 1.39 | 1.66 | 0.194
